# Results taken from FireProtDB (doi:10.1002/prot.340230110).
# Settings: Escherichia coli; pH 6; 25 °C; Thermal; DSC; Sodium phosphate/Sodium sulfate 10 mM/10 mM/; reversible: yes; whole UniProt chain shown
protein,measurement,value
"Regulatory protein rop wild type, P03051 (protein) MTKQEKTALNMARFIRSQTLTLLEKLNELDADEQADICESLHDHADELYRSCLARFGDDGENL",heat capacity change of unfolding,2.46 kcal/mol/K
same,unfolding free energy,17.1 kcal/mol
